Target: S. pneumoniae RecA lacking the first 28 residues (Δ28), purified (S. pneumoniae) (UniProt P0A451)
Assay: SEC-MALS; purified Δ28RecA; details in Supplementary Results and Supplementary Figure S5

S. pneumoniae RecA lacking the first 28 residues (Δ28), purified (from UniProt P0A451 29-388) (domain or fragment)
stoichiometry N: 2
